Measured values from PMC9722916.

Target: T1, rat TRPV2, C-terminally fused to GFP and a His8-tag (rat), Q9WUD2
T1 chain: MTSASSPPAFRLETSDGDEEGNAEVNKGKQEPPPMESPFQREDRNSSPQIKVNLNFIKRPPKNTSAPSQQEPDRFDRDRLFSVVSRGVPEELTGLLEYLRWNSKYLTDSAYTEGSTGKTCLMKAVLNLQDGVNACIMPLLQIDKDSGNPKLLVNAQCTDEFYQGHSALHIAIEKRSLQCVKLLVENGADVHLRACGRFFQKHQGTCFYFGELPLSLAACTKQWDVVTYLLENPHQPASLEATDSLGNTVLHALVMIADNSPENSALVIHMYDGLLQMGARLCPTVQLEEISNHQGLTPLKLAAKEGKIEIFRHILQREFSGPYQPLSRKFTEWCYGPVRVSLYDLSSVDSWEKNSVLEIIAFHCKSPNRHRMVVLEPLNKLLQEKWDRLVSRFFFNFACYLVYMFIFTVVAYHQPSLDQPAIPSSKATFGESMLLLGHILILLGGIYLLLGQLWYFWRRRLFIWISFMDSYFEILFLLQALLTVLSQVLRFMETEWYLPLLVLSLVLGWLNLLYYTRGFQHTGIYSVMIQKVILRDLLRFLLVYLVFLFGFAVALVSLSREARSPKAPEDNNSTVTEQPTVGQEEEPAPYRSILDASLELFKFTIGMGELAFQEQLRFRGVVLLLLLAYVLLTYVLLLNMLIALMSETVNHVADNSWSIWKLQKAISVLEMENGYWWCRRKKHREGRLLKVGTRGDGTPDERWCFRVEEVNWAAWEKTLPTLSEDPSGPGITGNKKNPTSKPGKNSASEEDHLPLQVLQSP
Experiment: cryo-EM structure; purified rat TRPV2 in GDN (20 mM Tris 8.0, 150 mM NaCl, 0.4 mg/ml GDN), incubated with C16 (50 uM) and probenecid (2 mM), alone or in combination, at room temperature for 15 min; C4 symmetry (C16 and probenecid structures), C1 symmetry (C16+probenecid structures)
Details: remark: other sources report otherwise

B1: rat TRPV2, C-terminally fused to GFP and a His8-tag, Q9WUD2 1-761 (natural protein)
chain: T1 chain
  stoichiometry N: 4
